Measurements as given in paper doi:10.1101/2023.07.07.548133.

Target: cytosolic PAS domain (PASc) of the bacterial citrate sensor histidine kinase (CitA)
Assay: MINFLUX fluorescence nanoscopy

Substance: cytosolic PAS domain (PASc) of the bacterial citrate sensor histidine kinase (CitA) (domain or fragment)
- stoichiometry N: 2
